We go through five molecules from paper PMC7388177 (Cell reports, 2020).

Numbering of substitutions follows the chain as printed. Numbers in names are those of the source.

Series [1] addresses T1, human ATG9A, purified in LMNG (mVenus-His tag cleaved) (human), Q7Z3C6.
T1 chain: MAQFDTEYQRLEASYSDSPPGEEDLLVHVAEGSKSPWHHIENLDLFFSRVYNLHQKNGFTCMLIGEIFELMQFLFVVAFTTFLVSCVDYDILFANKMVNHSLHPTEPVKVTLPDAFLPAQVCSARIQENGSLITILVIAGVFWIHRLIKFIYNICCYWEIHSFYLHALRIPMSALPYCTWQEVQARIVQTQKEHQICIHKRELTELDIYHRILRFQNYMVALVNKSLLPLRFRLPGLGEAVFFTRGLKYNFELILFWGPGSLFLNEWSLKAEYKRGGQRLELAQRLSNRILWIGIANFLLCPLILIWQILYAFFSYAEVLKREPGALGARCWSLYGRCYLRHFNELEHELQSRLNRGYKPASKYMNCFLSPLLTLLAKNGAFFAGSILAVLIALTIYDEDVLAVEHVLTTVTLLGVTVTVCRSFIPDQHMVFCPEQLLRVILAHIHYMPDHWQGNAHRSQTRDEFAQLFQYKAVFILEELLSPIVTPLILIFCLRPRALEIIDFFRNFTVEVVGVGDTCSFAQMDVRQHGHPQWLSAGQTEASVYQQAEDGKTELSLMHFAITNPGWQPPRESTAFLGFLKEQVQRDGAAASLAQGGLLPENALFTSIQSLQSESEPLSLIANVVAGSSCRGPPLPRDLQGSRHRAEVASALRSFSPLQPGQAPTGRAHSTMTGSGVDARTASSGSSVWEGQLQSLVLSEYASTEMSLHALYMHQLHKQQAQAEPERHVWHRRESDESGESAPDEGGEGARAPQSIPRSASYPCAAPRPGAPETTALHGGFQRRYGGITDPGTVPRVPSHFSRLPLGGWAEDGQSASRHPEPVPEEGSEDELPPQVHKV
As to the kind of experiment: negative-stain EM. The conditions noted are these: remark: other sources report otherwise.

Series [2] concerns the molecule itself. As to the kind of experiment: cross-linking.
For series [3], the target named is T2, endogenous ATG9A of HeLa cells (human (endogenous in HeLa)), Q7Z3C6.
T2 chain: T1 chain
Description: cross-linking. The conditions noted are these: remark: other sources report otherwise.

The target of series [4] is T3, ATG9A-mVenus fusion protein in membranes (human), Q7Z3C6.
T3 chain: T1 chain
Description: cross-linking. Particulars: remark: other sources report otherwise.

B1: human ATG9A, purified in LMNG (mVenus-His tag cleaved), Q7Z3C6 1-839 (natural protein)
chain: T1 chain
B1 gave a stoichiometry N in series [1] of 3.

B2: ATG9A-mVenus (F68C + N379C) (natural protein, human, UniProt Q7Z3C6 1-839, looked up)
chain: T1 chain with F68C, N379C
With B2, the “stoichiometry N” value in series [2] stood at 3.

B3: endogenous ATG9A of HeLa cells, Q7Z3C6 1-839 (natural protein)
chain: T1 chain
The molecule B3 showed a stoichiometry N in series [3] of 3.

B4: ATG9A-mVenus (N57C + P371C) (natural protein, human, UniProt Q7Z3C6 1-839, looked up)
chain: T1 chain with N57C, P371C
Take B4: the “stoichiometry N” value in series [2] came to 3.

B5: ATG9A-mVenus fusion protein in membranes, Q7Z3C6 1-839 (natural protein)
chain: T1 chain
Molecule B5 returned a stoichiometry N in series [4] of 3.

For orientation: stoichiometry N means the number of molecules, sites or subunits per partner or assembly.
